Data as given in publication PMC4337903, “Simian Virus Large T Antigen Interacts with the N-Terminal Domain of the 70 kD Subunit of Replication Protein A in the Same Mode as Multiple DNA Damage Response Factors” (PLoS ONE, 2015).

Tests used:
[1] = molecular target: RPA70N (aa 1-120 of RPA70) used for ITC and NMR (UniProt P27694); test: ITC; 10 μl injections of 336 μM Tag(84-130) into 60 μM RPA70N in the cell; 25 mM Tris-Cl pH 7.5, 100 mM NaCl; single site model; average of three trials
[2] = molecular target: T1, Simian virus 40 Large T-antigen (Tag), full length (Simian virus 40 (SV40), UniProt P03070 1-708); test: pull-down; GST-RPA70N (WT or R41/43E) or GST on glutathione beads, purified full-length Tag as prey; 4°C, 30 mM HEPES KOH pH 7.8, 10 mM KCl, 7 mM MgCl2, 10 μM ZnCl2, 2% non-fat dry milk; washes with 75 mM KCl; blot with pAb101 and anti-GST; also without antibody or after pre-incubation of Tag with control non-immune IgG; conditions: both partners purified
T1 construct: SV40 Large T antigen, full length; The methods tell the removal of GST from full-length Tag for 'ITC and NMR studies'; for the pull-down the legend says only 'purified as described in Materials and Methods'; also called Large Tumor Antigen; full-length Tag; source: Rosetta 2 cells, GST-tagged, purified (glutathione agarose), treated with H3C PreScission protease

Tag(84-130), GST removed (domain or fragment)
Kd [1]: 1.28 µM

B1: GST-RPA70N (N-terminal domain of the 70 kDa subunit of Replication Protein A, residues 1-120) (domain or fragment, UniProt P27694 1-120, looked up)
chain: MVGQLSEGAIAAIMQKGDTNIKPILQVINIRPITTGNSPPRYRLLMSDGLNTLSSFMLATQLNPLVEEEQLSSNCVCQIHRFIVNTLKDGRRVVILMELEVLKSAEAVGVKIGNPVPYNE
notes: also called GST-RPA70N WT; source: Rosetta 2 cells, purified (glutathione agarose)
binding result [2]: binds
